We go through 4 molecules from patent US20100190698A1 (PHYLOGICA, published 2010).

The experiment deals with c-Jun (Jun dimers as AP-1 moieties, endogenous in K562/AP1-Luc cells) (UniProt P05412 1-331). The experiment can be described thus: cell-based or functional assay.
Sequence of c-Jun (Jun dimers as AP-1 moieties, endogenous in K562/AP1-Luc cells) (P05412 whole entry): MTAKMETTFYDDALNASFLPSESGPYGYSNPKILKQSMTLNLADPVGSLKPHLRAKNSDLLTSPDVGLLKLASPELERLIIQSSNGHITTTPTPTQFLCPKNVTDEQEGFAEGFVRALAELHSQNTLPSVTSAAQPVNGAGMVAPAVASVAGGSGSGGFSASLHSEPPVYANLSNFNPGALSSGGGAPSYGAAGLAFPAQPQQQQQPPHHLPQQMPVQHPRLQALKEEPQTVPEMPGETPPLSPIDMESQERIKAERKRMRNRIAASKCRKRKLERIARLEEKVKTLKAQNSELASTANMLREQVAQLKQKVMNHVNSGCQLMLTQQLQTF
As for RSDYKDDDDKGLQGRRQPGQQPQGRWSGRALPAHR [PYC38/39], the “AP-1 reporter activity (luciferase, K562/AP1-Luc cells), of the level observed for the control sample” value is ~47 % of control.
The same measure for RSDYKDDDDKAYQSIRSGGIESSSKRER [PYC35]: ~35 % of control; for RSDYKDDDDKGLQGRRRQGYQSIKP [PYC36]: ~44 % of control; for RSDYKDDDDKVSINQEHHRLLPL [PYC41]: ~48 % of control.
